Measured values as given in the MegaScale stability set (Tsuboyama et al. 2023).

B1: EEHEE_rd4_0003 (parent)
chain: KKVTINGVEIKFNNPEEAVKFALELAKRLNLRIEFHGDQIKIE
B2: EEHEE_rd4_0363 (parent)
chain: VTVDIKGMEYHFDNPEEAKKFAERMAKELGGELKVENGTLKVE

Variants of: B1
Assay: folding stability dG (cDNA display proteolysis); higher = more stable
Details: PBS, room temperature
In the case of KKVTINGVEIKFNNPEEAVKFALELAKRLNLRIEFHGDQIKIS [E43S], the “folding stability dG” value is reported as 2.99 kcal/mol. With KKVTINGVEIKFNNPEEAVKFALELAKRLNLRIEFHGDQIKIT [E43T] the “folding stability dG” value was 3.27 kcal/mol. In the case of KKVTINGVEIKFNNPEEAVKFALELAKRLNLRIEFHGDQIKIV [E43V], the “folding stability dG” value is reported as 3.28 kcal/mol. In the case of KKVTINGVEIKFNNPEEAVKFALELAKRLNLRIEFHGDQIKIW [E43W], the “folding stability dG” value is reported as 3.45 kcal/mol. In the case of KKVTINGVEIKFNNPEEAVKFALELAKRLNLRIEFHGDQIKIY [E43Y], the “folding stability dG” value is reported as 3.45 kcal/mol.

Variants of: B2
Assay: as above
Details: PBS, room temperature
For ATVDIKGMEYHFDNPEEAKKFAERMAKELGGELKVENGTLKVE [V1A], the “folding stability dG” value was 1.48 kcal/mol. In the case of CTVDIKGMEYHFDNPEEAKKFAERMAKELGGELKVENGTLKVE [V1C], the “folding stability dG” value is reported as 2.67 kcal/mol. In the case of DTVDIKGMEYHFDNPEEAKKFAERMAKELGGELKVENGTLKVE [V1D], the “folding stability dG” value is reported as 0.479 kcal/mol. In the case of ETVDIKGMEYHFDNPEEAKKFAERMAKELGGELKVENGTLKVE [V1E], the “folding stability dG” value is reported as 0.523 kcal/mol. In the case of FTVDIKGMEYHFDNPEEAKKFAERMAKELGGELKVENGTLKVE [V1F], the “folding stability dG” value is reported as 2.41 kcal/mol. For GTVDIKGMEYHFDNPEEAKKFAERMAKELGGELKVENGTLKVE [V1G], the “folding stability dG” value was 0.889 kcal/mol. For HTVDIKGMEYHFDNPEEAKKFAERMAKELGGELKVENGTLKVE [V1H], the “folding stability dG” value was 1.63 kcal/mol. With ITVDIKGMEYHFDNPEEAKKFAERMAKELGGELKVENGTLKVE [V1I] the “folding stability dG” value was 2.06 kcal/mol. In the case of KTVDIKGMEYHFDNPEEAKKFAERMAKELGGELKVENGTLKVE [V1K], the “folding stability dG” value is reported as 1.2 kcal/mol. In the case of LTVDIKGMEYHFDNPEEAKKFAERMAKELGGELKVENGTLKVE [V1L], the “folding stability dG” value is reported as 2.03 kcal/mol. In the case of MTVDIKGMEYHFDNPEEAKKFAERMAKELGGELKVENGTLKVE [V1M], the “folding stability dG” value is reported as 2 kcal/mol. With NTVDIKGMEYHFDNPEEAKKFAERMAKELGGELKVENGTLKVE [V1N] the “folding stability dG” value was 1.31 kcal/mol. For PTVDIKGMEYHFDNPEEAKKFAERMAKELGGELKVENGTLKVE [V1P], the “folding stability dG” value was 0.612 kcal/mol. In the case of QTVDIKGMEYHFDNPEEAKKFAERMAKELGGELKVENGTLKVE [V1Q], the “folding stability dG” value is reported as 1.33 kcal/mol. For RTVDIKGMEYHFDNPEEAKKFAERMAKELGGELKVENGTLKVE [V1R], the “folding stability dG” value was 1.29 kcal/mol. In the case of STVDIKGMEYHFDNPEEAKKFAERMAKELGGELKVENGTLKVE [V1S], the “folding stability dG” value is reported as 1.45 kcal/mol. In the case of TTVDIKGMEYHFDNPEEAKKFAERMAKELGGELKVENGTLKVE [V1T], the “folding stability dG” value is reported as 2.01 kcal/mol. For WTVDIKGMEYHFDNPEEAKKFAERMAKELGGELKVENGTLKVE [V1W], the “folding stability dG” value was 2.81 kcal/mol. With YTVDIKGMEYHFDNPEEAKKFAERMAKELGGELKVENGTLKVE [V1Y] the “folding stability dG” value was 2.55 kcal/mol. For VAVDIKGMEYHFDNPEEAKKFAERMAKELGGELKVENGTLKVE [T2A], the “folding stability dG” value was 1.1 kcal/mol. With VDVDIKGMEYHFDNPEEAKKFAERMAKELGGELKVENGTLKVE [T2D] the “folding stability dG” value was 0.711 kcal/mol. In the case of VEVDIKGMEYHFDNPEEAKKFAERMAKELGGELKVENGTLKVE [T2E], the “folding stability dG” value is reported as 0.41 kcal/mol. In the case of VFVDIKGMEYHFDNPEEAKKFAERMAKELGGELKVENGTLKVE [T2F], the “folding stability dG” value is reported as 1.65 kcal/mol. For VGVDIKGMEYHFDNPEEAKKFAERMAKELGGELKVENGTLKVE [T2G], the “folding stability dG” value was 0.389 kcal/mol. In the case of VHVDIKGMEYHFDNPEEAKKFAERMAKELGGELKVENGTLKVE [T2H], the “folding stability dG” value is reported as 1.26 kcal/mol. With VIVDIKGMEYHFDNPEEAKKFAERMAKELGGELKVENGTLKVE [T2I] the “folding stability dG” value was 2.37 kcal/mol. In the case of VKVDIKGMEYHFDNPEEAKKFAERMAKELGGELKVENGTLKVE [T2K], the “folding stability dG” value is reported as 1.95 kcal/mol. In the case of VLVDIKGMEYHFDNPEEAKKFAERMAKELGGELKVENGTLKVE [T2L], the “folding stability dG” value is reported as 1.81 kcal/mol. In the case of VMVDIKGMEYHFDNPEEAKKFAERMAKELGGELKVENGTLKVE [T2M], the “folding stability dG” value is reported as 1.71 kcal/mol. With VNVDIKGMEYHFDNPEEAKKFAERMAKELGGELKVENGTLKVE [T2N] the “folding stability dG” value was 1.1 kcal/mol. In the case of VPVDIKGMEYHFDNPEEAKKFAERMAKELGGELKVENGTLKVE [T2P], the “folding stability dG” value is reported as 0.448 kcal/mol. In the case of VQVDIKGMEYHFDNPEEAKKFAERMAKELGGELKVENGTLKVE [T2Q], the “folding stability dG” value is reported as 1.03 kcal/mol. For VRVDIKGMEYHFDNPEEAKKFAERMAKELGGELKVENGTLKVE [T2R], the “folding stability dG” value was 1.7 kcal/mol. With VSVDIKGMEYHFDNPEEAKKFAERMAKELGGELKVENGTLKVE [T2S] the “folding stability dG” value was 1.31 kcal/mol. With VVVDIKGMEYHFDNPEEAKKFAERMAKELGGELKVENGTLKVE [T2V] the “folding stability dG” value was 2.21 kcal/mol. With VWVDIKGMEYHFDNPEEAKKFAERMAKELGGELKVENGTLKVE [T2W] the “folding stability dG” value was 2.04 kcal/mol. For VYVDIKGMEYHFDNPEEAKKFAERMAKELGGELKVENGTLKVE [T2Y], the “folding stability dG” value was 1.52 kcal/mol. For VTADIKGMEYHFDNPEEAKKFAERMAKELGGELKVENGTLKVE [V3A], the “folding stability dG” value was 0.392 kcal/mol. With VTCDIKGMEYHFDNPEEAKKFAERMAKELGGELKVENGTLKVE [V3C] the “folding stability dG” value was 1.34 kcal/mol. With VTDDIKGMEYHFDNPEEAKKFAERMAKELGGELKVENGTLKVE [V3D] the “folding stability dG” value was -0.088 kcal/mol. With VTEDIKGMEYHFDNPEEAKKFAERMAKELGGELKVENGTLKVE [V3E] the “folding stability dG” value was -0.171 kcal/mol. For VTFDIKGMEYHFDNPEEAKKFAERMAKELGGELKVENGTLKVE [V3F], the “folding stability dG” value was 0.603 kcal/mol. With VTGDIKGMEYHFDNPEEAKKFAERMAKELGGELKVENGTLKVE [V3G] the “folding stability dG” value was 0.059 kcal/mol. With VTHDIKGMEYHFDNPEEAKKFAERMAKELGGELKVENGTLKVE [V3H] the “folding stability dG” value was -0.104 kcal/mol. For VTIDIKGMEYHFDNPEEAKKFAERMAKELGGELKVENGTLKVE [V3I], the “folding stability dG” value was 1.18 kcal/mol. With VTKDIKGMEYHFDNPEEAKKFAERMAKELGGELKVENGTLKVE [V3K] the “folding stability dG” value was -0.032 kcal/mol. For VTLDIKGMEYHFDNPEEAKKFAERMAKELGGELKVENGTLKVE [V3L], the “folding stability dG” value was 1.04 kcal/mol. With VTMDIKGMEYHFDNPEEAKKFAERMAKELGGELKVENGTLKVE [V3M] the “folding stability dG” value was 0.639 kcal/mol. In the case of VTNDIKGMEYHFDNPEEAKKFAERMAKELGGELKVENGTLKVE [V3N], the “folding stability dG” value is reported as -0.005 kcal/mol. For VTPDIKGMEYHFDNPEEAKKFAERMAKELGGELKVENGTLKVE [V3P], the “folding stability dG” value was 0.059 kcal/mol. In the case of VTQDIKGMEYHFDNPEEAKKFAERMAKELGGELKVENGTLKVE [V3Q], the “folding stability dG” value is reported as 0.039 kcal/mol. For VTRDIKGMEYHFDNPEEAKKFAERMAKELGGELKVENGTLKVE [V3R], the “folding stability dG” value was -0.231 kcal/mol. For VTSDIKGMEYHFDNPEEAKKFAERMAKELGGELKVENGTLKVE [V3S], the “folding stability dG” value was 0.004 kcal/mol. For VTTDIKGMEYHFDNPEEAKKFAERMAKELGGELKVENGTLKVE [V3T], the “folding stability dG” value was 0.19 kcal/mol.
